Experimental data reported in US9976167B2, “Group of glycosyltransferases and use thereof” (Shanghai Institutes For Biological Sciences, Chinese …, priority 2012, dated 2018).

B1: 3GT1: glycosyltransferase protein with 495 amino acids, SEQ ID NO.: 22; homology with UGT73C10 of Barbarea vulgaris higher than 99% (protein, listed as Barbarea vulgaris)
chain: MVSEITHKSYPLHFVLFPFMAQGHMIPMVDIARLLAQRGVKITIVTTPHNAARFENVLSRAIESGLPISIVQVKLPSQEAGLPEGNETFDSLVSTKLLVPFFKAVNMLEEPVQKLFEEMSPQPSCIISDFCLPYTSKIAKKFNIPKILFHGMCCFCLLCMHVLRKNREILENLKSDKEHFVVPYFPDRVEFTRPQVPLATYVPGEWHEIKEDMVEADKTSYGVIVNTYQELEPAYANGYKEARSGKAWTIGPVSLCNKVGADKAERGNKADIDQDECLKWLDSKEEGSVLYVCLGSICSLPLSQLKELGLGLEESQRPFIWVVRGWEKNKELLEWFSESGFEERVKDRGLLIKGWSPQMLILAHHSVGGFLTHCGWNSTLEGITSGVPLLTWPLFGDQFCNQKLVVQVLKVGVSAGVEEVTNWGEEEKIGVLVDKEGVKKAVEELMGESDDAKEIRKRVKELGQLAHKAVEEGGSSHSNITSLLEDIMQLAQPNN
modifications: 3GT1
B2: 3GT2: glycosyltransferase protein with 495 amino acids, SEQ ID NO.: 24; homology with UGT73C12 of Barbarea vulgaris higher than 99% (protein, listed as Barbarea vulgaris)
chain: MVSEITHKSYPLHFVLFPFMAQGHMIPMVDIARLLAQRGVKITIVTTPHNAARFKNVLSRAIESGLPISIVQVKLPSQEAGLPEGNETLDSLVSMELMIHFLKAVNMLEEPVQKLFEEMSPQPSCIISDFCLPYTSKIAKKFNIPKILFHGMCCFCLLCMHILRKNREIVENLKSDKEHFVVPYFPDRVEFTRPQVPVATYVPGDWHEITEDMVEADKTSYGVIVNTYQELEPAYANDYKEARSGKAWTIGPVSLCNKVGADKAERGNKADIDQDECLKWLNSKEEGSVLYVCLGSICNLPLSQLKELGLGLEESQRPFIWVIRGWEKNKELHEWFSESGFEERIKDRGLLIKGWAPQMLILSHHSVGGFLTHCGWNSTLEGLTAGLPLLTWPLFADQFCNEKLAVQVLKAGVSAGVDQPMKWGEEEKIGVLVDKEGVKKAVEELMGESDDAKEIRRRAKELGELAHKAVEEGGSSHSNITSLLEDIMQLAQSNN
modifications: 3GT2
B3: 3GT3: glycosyltransferase protein with 497 amino acids, SEQ ID NO.: 41; homology with a Medicago truncatula glycosyltransferase higher than 99% (protein, listed as Medicago truncatula)
chain: MEGVEVEQPLKVYFIPFLASGHMIPLFDIATMFASRGQQVTVITTPANAKSLTKSLSSDAPSFLRLHTVDFPSQQVGLPEGIESMSSTTDPTTTWKIHTGAMLLKEPIGDFIENDPPDCIISDSTYPWVNDLADKFQIPNITFNGLCLFAVSLVETLKTNNLLKSQTDSDSDSSSFVVPNFPHHITLCGKPPKVIGIFMGMMLETVLKSKALIINNFSELDGEECIQHYEKATGHKVWHLGPTSLIRKTAQEKSERGNEGAVNVHESLSWLDSERVNSVLYICFGSINYFSDKQLYEMACAIEASGHPFIWVVPEKKGKEDESEEEKEKWLPKGFEERNIGKKGLIIRGWAPQVKILSHPAVGGFMTHCGGNSTVEAVSAGVPMITWPVHGDQFYNEKLITQFRGIGVEVGATEWCTSGVAERKKLVSRDSIEKAVRRLMDGGDEAENIRLRAREFGEKAIQAIQEGGSSYNNLLALIDELKRSRDLKRLRDLKLDD
modifications: 3GT3

Experiments:
osteoclasts = conditions: cited from earlier work
prostate cancer cells = conditions: cited from earlier work
[1] = Glycosyltransfering reaction with crude enzyme, substrate 20(R)-PPD; assay type: biochemical; conditions: 35° C., 12 hrs, TLC; for catalysis of 20(R)-PPD (product 20(R)-ginsenoside Rh2): crude enzyme of Example 11; for substrate that could be catalyzed: 20(R)-PPD: crude enzyme: lysate supernatant of recombinant E. coli, UDP-glucose
[2] = Glycosyltransfering reaction with crude enzyme, substrate PPT; assay type: biochemical; conditions: crude enzyme: lysate supernatant of recombinant E. coli; UDP-glucose, 35° C., 12 hrs; TLC
[3] = Glycosyltransfering reaction with crude enzyme, substrate CK; assay type: biochemical; conditions: 35° C., 12 hrs, TLC; for glycosylation of C3-OH of CK (product F2): crude enzyme of Example 11; for substrate that could be catalyzed: CK: crude enzyme: lysate supernatant of recombinant E. coli, UDP-glucose
Method: (§1) According to the method as in Example 4, the cell lysate of recombinant yeasts expressing gGT13 and gGT30 were used to catalyze PPD and PPT.
(§2) The glycosyltransfering reactions of ginsenosides and ginsengenins were catalyzed by using the lysis supernatant of the recombinant yeasts expressing 3GT1, 3GT2, 3GT3 and 3GT4 as crude enzymes. The lysis supernatant of recombinant E. coli expressing empty vectors was used as control. The 100 μL reaction system is shown as Table 3. The reaction was conducted under 35° C. for 12 hrs, then stopped by adding 100 μL of butanol. The product were extracted, dried in vacuum, and dissolved in methanol.

[4] = Glycosyltransfering reaction with crude enzyme, substrate lanosterol; assay type: biochemical; conditions: 35° C., 12 hrs, TLC; for glycosylation of C3-OH of lanosterol (product 3-O-β-(D-glucopyranosyl)-lanosterol): crude enzyme of Example 11; for substrate that could be catalyzed: lanosterol: crude enzyme: lysate supernatant of recombinant E. coli, UDP-glucose
Method: as §2

[5] = Glycosyltransfering reaction with crude enzyme, substrate 25-OH-PPD; assay type: biochemical; conditions: 35° C., 12 hrs, TLC; for glycosylation of C3-OH of 25-OH-PPD (product 3-O-β-(D-glucopyranosyl)-25-OH-PPD): crude enzyme of Example 11; for substrate that could be catalyzed: 25-OH-PPD: crude enzyme: lysate supernatant of recombinant E. coli, UDP-glucose
Method: as §2

[6] = Glycosyltransfering reaction with crude enzyme, substrate DM; assay type: biochemical; conditions: 35° C., 12 hrs, TLC; for glycosylation of C3-OH of DM (product 3-O-β-(D-glucopyranosyl)-Dammarenediol II): crude enzyme of Example 11; for substrate that could be catalyzed: DM: crude enzyme: lysate supernatant of recombinant E. coli, UDP-glucose
Method: (§3) The lysate supernatant of the recombinant yeasts expressing the empty vector was used as control.
(§4) The reaction was conducted under 35° C. for 12 hrs, then stopped by adding 100 μL of butanol. The product were extracted, dried in vacuum, and dissolved in methanol.
(§5) The reaction products were first detected by thin layer chromatography (TLC).
as §2

[7] = Glycosyltransfering reaction with crude enzyme, substrate PPT; assay type: biochemical; conditions: crude enzyme of Example 11; 35° C., 12 hrs; TLC
Method: as §3, §4, §5
(§6) The converted products of gGT25 were further identified by HPLC (FIG. 10 and FIG. 11). The retention time of peak 2 was identical to that of the CK standard sample; the retention time of peak 3 was identical to that of PPD. […] Peak 1, also present in the profile of the negative control, indicated its irrelevance to the conversion of PPD. 3 peaks were shown in FIG. 11, the retention time of peak 1 was identical to that of F1 standard sample and peak 3 was identical to that of PPT. […] Peak 2, also present in the profile of the negative control, indicated its irrelevance to the conversion of PPT.
as §1, §2

[8] = Glycosyltransfering reaction with crude enzyme, substrate F1; assay type: biochemical; conditions: 35° C., 12 hrs, TLC; for glycosylation of C3-OH of F1 (product 3-O-β-(D-glucopyranosyl)-F1): crude enzyme of Example 11; for substrate that could be catalyzed: F1: crude enzyme: lysate supernatant of recombinant E. coli, UDP-glucose
Method: as §1
The lysis supernatant of recombinant E. coli expressing empty vectors was used as control. The 100 μL reaction system is shown as Table 3. The reaction was conducted under 35° C. for 12 hrs, then stopped by adding 100 μL of butanol. The product were extracted, dried in vacuum, and dissolved in methanol.

[9] = Glycosyltransfering activities on ginsengenins and saponins: glycosylation site and specificity (summary); assay type: biochemical; conditions: for effect of the steric configuration of the hydroxyl or glycosyl at C20 on catalytic activity: 20(S)-type versus 20(R)-type substrates; for glycosylation site: C-3: Table 2, tetracyclic triterpenoid substrates; for substrate spectrum / specificity: comparison of 3GT1, 3GT2, 3GT3 and 3GT4, Table 6
Method: More than 100 predicted cDNA sequences of glycosyltransferases were extracted from the published expression profile data of the Panax plant. 60 cDNAs with full length were cloned, expressed, and subjected to the analysis of glycosyltransfering reaction.
as §3, §4, §2
The lysate supernatant of the recombinant yeast expressing empty vectors was used as control. The reaction was conducted under 35° C. for 12 hrs, and then stopped by adding 100 μL of butanol. The product were extracted, dried in vacuum, and dissolved in methanol.
The glycosyltransfering reactions of ginsenosides Rh2 and F2 were catalyzed by using the lysate supernatant of the recombinant yeasts expressing 3GT1, 3GT2, 3GT3 and 3GT4 as crude enzymes. The 100 μL reaction system is shown as Table 3. The reaction was conducted under 35° C. for 12 hrs, and then stopped by adding 100 μL of butanol. The product were extracted, dried in vacuum, and dissolved in methanol.

[10] = Glycosyltransfering reaction with crude enzyme, substrate PPD; assay type: biochemical; conditions: crude enzyme: lysate supernatant of recombinant E. coli; UDP-glucose, 35° C., 12 hrs; TLC
Method: as §3, §4, §5, §6, §1
The cell lysis supernatant of the recombinant E. coli was used as crude enzyme to conduct the glycosyltransfering reaction, and the reaction condition was identical to that of Example 4.
The reaction was conducted under 35° C. for 12 hrs. 100 μL of butanol was added to stop the reaction and the products were extracted. Upon vacuum drying, the product was dissolved by methanol. TLC was first used to detect the reaction product.
as §2
The reaction was conducted under 35° C. for 12 hrs, and then stopped by adding 100 μL of butanol. The product were extracted, dried in vacuum, and dissolved in methanol. The reaction products were first detected by thin layer chromatography (TLC) (FIG. 35).

Molecule | catalysis of 20(R)-PPD (product 20(R)-ginsenoside Rh2) [1] | substrate that could be catalyzed: 20(R)-PPD [1] | substrate that could be catalyzed: PPT [2] | glycosylation of C3-OH of CK (product F2) [3] | substrate that could be catalyzed: CK [3] | glycosylation of C3-OH of lanosterol (product 3-O-β-(D-glucopyranosyl)-lanosterol) [4] | substrate that could be catalyzed: lanosterol [4] | glycosylation of C3-OH of 25-OH-PPD (product 3-O-β-(D-glucopyranosyl)-25-OH-PPD) [5] | substrate that could be catalyzed: 25-OH-PPD [5] | glycosylation of C3-OH of DM (product 3-O-β-(D-glucopyranosyl)-Dammarenediol II) [6] | substrate that could be catalyzed: DM [6] | glycosylation of C3-OH of PPT (product 3-O-β-(D-glucopyranosyl)-PPT) [7] | glycosylation of C3-OH of F1 (product 3-O-β-(D-glucopyranosyl)-F1) [8] | substrate that could be catalyzed: F1 [8] | effect of the steric configuration of the hydroxyl or glycosyl at C20 on catalytic activity [9] | glycosylation site: C-3 [9] | substrate spectrum / specificity [9] | substrate that could be catalyzed: PPD [10] | further results
CC(C)=CCC[C@@](C)(O)[C@H]1CC[C@]2(C)[C@@H]1[C@H](O)C[C@@H]1[C@@]3(C)CC[C@H](O[C@@H]4O[C@H](CO)[C@@H](O)[C@H](O)[C@H]4O)C(C)(C)[C@@H]3CC[C@]12C [R-type ginsenoside Rh2, 3-O-β-(D-glucopyranosyl)-20(R)-protopanaxadiol] |  |  |  |  |  |  |  |  |  |  |  |  |  |  |  |  |  |  | cytotoxicity to osteoclasts (osteoclasts): without any cytotoxicity; inhibition of the generation of osteoclasts (osteoclasts): selectively inhibit; inhibition of prostate cancer cells (prostate cancer cells): quite poor
B1 | could catalyze | ✓ | ✓ | further glycosylating its C3-OH | ✓ | could be glycosylated | ✓ | could be glycosylated | ✓ | could be glycosylated | ✓ | could be glycosylated | could be glycosylated | ✓ | not affected | ✓ | most number of substrates | ✓ | 
B2 | could catalyze | ✓ | ✓ | further glycosylating its C3-OH | ✓ | could be glycosylated | ✓ | could be glycosylated | ✓ | could be glycosylated | ✓ | could be glycosylated | could be glycosylated | ✓ | not affected | ✓ | most number of substrates | ✓ | 
B3 |  |  | ✓ | further glycosylating its C3-OH |  |  |  | could be glycosylated | ✓ |  |  | could be glycosylated |  |  |  | ✓ | least number of substrates | ✓ | 
